B1: SUMO-specific isopeptidase USPL1 (Homo sapiens), Q5W0Q7 (parent)
chain: MMDSPKIGNGLPVIGPGTDIGISSLHMVGYLGKNFDSAKVPSDEYCPACREKGKLKALKTYRISFQESIFLCEDLQCIYPLGSKSLNNLISPDLEECHTPHKPQKRKSLESSYKDSLLLANSKKTRNYIAIDGGKVLNSKHNGEVYDETSSNLPDSSGQQNPIRTADSLERNEILEADTVDMATTKDPATVDVSGTGRPSPQNEGCTSKLEMPLESKCTSFPQALCVQWKNAYALCWLDCILSALVHSEELKNTVTGLCSKEESIFWRLLTKYNQANTLLYTSQLSGVKDGDCKKLTSEIFAEIETCLNEVRDEIFISLQPQLRCTLGDMESPVFAFPLLLKLETHIEKLFLYSFSWDFECSQCGHQYQNRHMKSLVTFTNVIPEWHPLNAAHFGPCNNCNSKSQIRKMVLEKVSPIFMLHFVEGLPQNDLQHYAFHFEGCLYQITSVIQYRANNHFITWILDADGSWLECDDLKGPCSERHKKFEVPASEIHIVIWERKISQVTDKEAACLPLKKTNDQHALSNEKPVSLTSCSVGDAASAETASVTHPKDISVAPRTLSQDTAVTHGDHLLSGPKGLVDNILPLTLEETIQKTASVSQLNSEAFLLENKPVAENTGILKTNTLLSQESLMASSVSAPCNEKLIQDQFVDISFPSQVVNTNMQSVQLNTEDTVNTKSVNNTDATGLIQGVKSVEIEKDAQLKQFLTPKTEQLKPERVTSQVSNLKKKETTADSQTTTSKSLQNQSLKENQKKPFVGSWVKGLISRGASFMPLCVSAHNRNTITDLQPSVKGVNNFGGFKTKGINQKASHVSKKARKSASKPPPISKPPAGPPSSNGTAAHPHAHAASEVLEKSGSTSCGAQLNHSSYGNGISSANHEDLVEGQIHKLRLKLRKKLKAEKKKLAALMSSPQSRTVRSENLEQVPQDGSPNDCESIEDLLNELPYPIDIASESACTTVPGVSLYSSQTHEEILAELLSPTPVSTELSENGEGDFRYLGMGDSHIPPPVPSEFNDVSQNTHLRQDHNYCSPTKKNPCEVQPDSLTNNACVRTLNLESPMKTDIFDEFFSSSALNALANDTLDLPHFDEYLFENY

Variants of: B1
Conditions: with sumo3_human SUMO3, P55854
Sequence of sumo3_human SUMO3, P55854 (P55854 whole entry): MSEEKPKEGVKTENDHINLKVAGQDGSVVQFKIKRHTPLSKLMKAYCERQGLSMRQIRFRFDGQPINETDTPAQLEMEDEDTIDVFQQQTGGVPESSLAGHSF

effect of a mutation on the interaction | Variant
decreasing interaction | L340A
decreasing interaction | L341A

Variants of: B1
Conditions: with sumo3_human SUMO3, P55854
Remark: another data set of the same source

effect of a mutation on the interaction | Variant
disrupting interaction | L340A
disrupting interaction | L341A

Variants of: B1
Conditions: with sumo3_human SUMO3, P55854
Remark: another data set of the same source

effect of a mutation on the interaction | Variant
decreasing interaction | W237F

Variants of: B1
Conditions: with sumo3_human SUMO3, P55854
Remark: another data set of the same source

effect of a mutation on the interaction | Variant
disrupting interaction | W237F

Variants of: B1
Conditions: with sumo3_human SUMO3, P55854
Remark: another data set of the same source

effect of a mutation on the interaction | Variant
decreasing interaction | H421A

Variants of: B1
Conditions: with sumo3_human SUMO3, P55854
Remark: another data set of the same source

effect of a mutation on the interaction | Variant
decreasing interaction | V495A
decreasing interaction | I494A

Variants of: B1
Conditions: with sumo3_human SUMO3, P55854
Remark: another data set of the same source

effect of a mutation on the interaction | Variant
disrupting interaction | V495A
disrupting interaction | I494V

Variants of: B1
Conditions: with sumo3_human SUMO3, P55854
Remark: another data set of the same source

effect of a mutation on the interaction | Variant
decreasing interaction | W229L

Variants of: B1
Conditions: with sumo3_human SUMO3, P55854
Remark: another data set of the same source

effect of a mutation on the interaction | Variant
disrupting interaction | W229L

Variants of: B1
Conditions: with sumo3_human SUMO3, P55854
Remark: another data set of the same source

effect of a mutation on the interaction | Variant
decreasing interaction | E331A

Source: IntAct's records for PubMed 22878415
